Biological target: Sambucus nigra agglutinin (Sambucus nigra)
Assay: localized surface plasmon resonance

Sequence of Sambucus nigra agglutinin (Sambucus nigra) (Q41358 29-289 limits assumed, chain 1 of 2): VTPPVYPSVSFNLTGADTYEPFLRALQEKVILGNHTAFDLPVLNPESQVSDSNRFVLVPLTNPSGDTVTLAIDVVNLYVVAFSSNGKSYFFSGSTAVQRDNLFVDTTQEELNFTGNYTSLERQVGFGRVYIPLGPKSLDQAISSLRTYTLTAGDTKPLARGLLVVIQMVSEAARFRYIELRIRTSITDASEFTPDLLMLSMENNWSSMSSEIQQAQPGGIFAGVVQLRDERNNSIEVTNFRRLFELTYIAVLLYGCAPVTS
Sequence of Sambucus nigra agglutinin (Sambucus nigra) (Q41358 309-570 limits assumed, chain 2 of 2): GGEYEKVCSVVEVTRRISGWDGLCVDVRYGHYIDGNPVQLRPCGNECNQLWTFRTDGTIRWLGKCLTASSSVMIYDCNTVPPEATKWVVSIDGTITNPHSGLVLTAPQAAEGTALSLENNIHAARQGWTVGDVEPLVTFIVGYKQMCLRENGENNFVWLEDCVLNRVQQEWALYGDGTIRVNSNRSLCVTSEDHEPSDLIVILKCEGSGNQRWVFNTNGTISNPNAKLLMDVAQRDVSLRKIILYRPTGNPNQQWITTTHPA

α-1 acid glycoprotein (from UniProt P02763 19-201) (natural protein)
Kd: 31 µM

— PMC7347289
